Measured values: patent US20150274802A1 (INDIANA UNIVERSITY RESEARCH AND TECHNOLOGY, published 2015)
Values joined by “and” are separate entries in the source; they are usually repeats but may differ in a detail not shown here. Equal values may be shown once. Bridge positions count the residues as written; N and C are the ends. Square brackets hold non-standard residues; d marks the D form. Ends that are not written are not given here. I, II: the chains in the order shown. Phe(4-NH2) = Nc1ccc(C[C@H](N)C(=O)O)cc1

B1: MIU-57: B1-PEG20K MIU-35 (ligand)
chain: {PEG 20 kDa}-GPEHLCGAHLVDALYLVCGDRGFYGYGSSSRRAPQTGIVDECCHRSCDLRRLENYCN
modifications: ends and bridges not checked
B2: IGF-1 A:In B(1-5)-IGF-1 B(YL) (6-30) (ligand)
chain 1: GIVDECCFRSCDLRRLEMYCA
chain 2: FVNQHLCGAELVDALYLVCGDRGFYFNKPT
modifications: ends and bridges not checked; also: C-terminal amide, chain not given here
notes: chimeric B chain
B3: IGF-1 A:IGF-1 B(1-8)-In (9-17)-IGF-1 B(18-30) (ligand)
chain 1: GIVDECCFRSCDLRRLEMYCA-NH2
chain 2: GPETLCGSHLVEALYLVCGDRGFYFNKPT-NH2
modifications: disulfide I:6-I:11, I:20-II:18, I:7-II:6 (inferred); not fully specified
notes: chimeric B chain
B4: IGF-1 A:B (H5D10Y16L17) DPI (ligand)
chain 1: GIVDECCFRSCDLRRLEMYCA-NH2
chain 2: GPEHLCGADLVDALYLVCGDRGFY-NH2
modifications: cysteine pairing not given here
B5: IGF-1 A (H8 A9 N21):B(H5D10Y16L17) DPI A-COOH (ligand)
chain 1: GIVDECCHASCDLRRLEMYCN-OH
chain 2: GPEHLCGADLVDALYLVCGDRGFY
modifications: not fully specified (C-terminus); ends and bridges not checked
B6: IGF-1 A:B (E10Y16L17) DPI (ligand)
chain 1: GIVDECCFRSCDLRRLEMYCA-NH2
chain 2: GPETLCGAELVDALYLVCGDRGFY-NH2
modifications: cysteine pairing not given here
B7: IGF-1 A:B(D10Y16L17) DPI A-COOH (ligand)
chain 1: GIVDECCFRSCDLRRLEMYCA-OH
chain 2: GPETLCGADLVDALYLVCGDRGFY-NH2
modifications: ends and bridges not checked
B8: IGF-1 A (H8 A9 N21):B(H5D10Y16L17 A22) DPI A-COOH (ligand)
chain 1: GIVDECCHASCDLRRLEMYCN-OH
chain 2: GPEHLCGADLVDALYLVCGDAGFY
modifications: not fully specified (C-terminus); ends and bridges not checked
B9: IGF-1 A:B(E10Y16L17)-E31E32 B-COOH (ligand)
chain 1: GIVDECCFRSCDLRRLEMYCA
chain 2: GPETLCGAELVDALYLVCGDRGFYFNKPTEE-OH
modifications: not fully specified (C-terminus); ends and bridges not checked
B10: IGF1 (Y^B16L^B17) (p-NH2-F)^A19 amide (ligand)
chain 1: GIVDECCFRSCDLRRLEM[Phe(4-NH2)]CA
chain 2: GPETLCGAELVDALYLVCGDRGFYFNKPT
modifications: not fully specified; ends and bridges not checked
notes: also called IGF1 (Y^B16L^B17) A(p-NH2-F)^19
B11: IGF-1 A (H8 A9 N21):B(H5D10Y16L17A22) (S═O) DPI A-COOH (ligand)
chain 1: GIVDECCHASCDLRRLEMYCN-OH
chain 2: GPEHLCGADLVDALYLVCGDAGFY
modifications: not fully specified (C-terminus); ends and bridges not checked; also: (S═O) oxidation, residue not given here
B12: IGF-2 AB(YL) (ligand)
chain 1: not shown
chain 2: AYRPSETLCGGELVDTLYLVCGDRGFYFSRPA
modifications: C-terminal amide
B13: IGF-1 A:B(H5D10Y16L17) (S═O) DPI (ligand)
chain 1: GIVDECCFRSCDLRRLEMYCA-NH2
chain 2: GPEHLCGADLVDALYLVCGDRGFY-NH2
modifications: ends and bridges not checked; also: (S═O) oxidation, residue not given here
B14: IGF-1 A:B (ligand, human)
chain 1: GIVDECCFRSCDLRRLEMYCA
chain 2: GPETLCGAELVDALQFVCGDRGFYFNKPT
modifications: not fully specified (C-terminus); ends and bridges not checked; also: C-terminal amide, chain not given here
notes: domain: B chain; two-chain form of IGF-1
B15: GE5W-B^1(H5,10Y16L17)25-C^1-A^1(A1H8N18,21) (ligand)
chain: GEEEEEWGPEHLCGAHLVDALYLVCGDRGFYGYGSSSRRAPQTAIVDECCHRSCDLRRLENYCN
B16: B^1(H5,10Y16L17)25-C^1-A^1(T8N18,21) (ligand)
chain: GPEHLCGAHLVDALYLVCGDRGFYGYGSSSRRAPQTGIVDECCTRSCDLRRLENYCN
B17: IGF-1 A:B(E10Y16L17) (ligand)
chain 1: GIVDECCFRSCDLRRLEMYCA-NH2
chain 2: GPETLCGAELVDALYLVCGDRGFYFNKPT-NH2
modifications: cysteine pairing not given here
B18: IGF1(Y^B16L^B17)(AlaPro)^A-1,0 (ligand)
chain 1: APGIVDECCFRSCDLRRLEMYCA
chain 2: GPETLCGAELVDALYLVCGDRGFYFNKPT

target: T1, human IGF-1 receptor (human, UniProt P08069 31-1367); experiment: cell-based or functional assay

| Binder | % Insulin Activity (in vitro, assay not named) [%] |
| --- | --- |
| B1 | 1.2 |

target: T1, human IGF-1 receptor; experiment: competition SPA, [125I]IGF-1
Experimental: (§1) Non-specifically bound (NSB) radioactivity was measured in the wells with a four-fold concentration excess of “cold” native ligand than the highest concentration in test samples. Total bound radioactivity was detected in the wells with no competitor. Percent specific binding was calculated as following: % Specific Binding=(Bound-NSB/Total bound-NSB)×100. IC50 values were determined by using Origin software (OriginLab, Northampton, Mass.).

| Binder | % IGF-1 (in test) [%] | % native IGF-1 activity (0.55 nM) [%] |
| --- | --- | --- |
| B2 | 3.6 | 2 |
| B3 | 0.3 | 0.4 |
| B4 | 11.2 | 11.8 |
| B5 | 12.9 | 13.6 |
| B6 | 3.3 | 2.4 |
| B7 | 7.7 | 8.1 |
| B8 | 2.3 | 2.4 |
| B9 | 3 | 3.1 |

target: T2, human insulin receptor (human, UniProt P06213 28-1382); experiment: competition SPA, [125I]insulin
T2 construct: whole, on cells; receptor-transfected HEK293 cells in the phosphorylation assay

| Binder | IC50 [nM] |
| --- | --- |
| B10 | 1.08 |

target: T2, human insulin receptor; experiment: competition SPA, [125I]insulin; remark: another data set of the same source
Experimental: as §1

| Binder | % insulin (in test) [%] | % native insulin activity (0.6 nM) [%] | IC50 [nM] |
| --- | --- | --- | --- |
| B3 | 19.1 | 37.7 | 1.59 |
| B4 | 479 |  | 0.16 |
| B11 | 401 |  |  |
| B8 | 1170 |  | 0.12 |
| B12 |  |  | 6.81 |
| B13 | 316 |  | 0.25 |
| B14 | 5.8 | 5.8 | 10.4 |

target: T1, human IGF-1 receptor; experiment: cell-based or functional assay; remark: another data set of the same source

| Binder | % (potency at the receptor, assay not named) [%] |
| --- | --- |
| B15 | 0.5 |
| B1 | 1.2 |
| B16 | 3.7 |

target: T1, human IGF-1 receptor; experiment: cell-based or functional assay; remark: another data set of the same source

| Binder | Phosphorylation (EC50), % IGF-1 R [%] |
| --- | --- |
| B1 | 1.2 |

target: T2, human insulin receptor; experiment: cell-based or functional assay

| Binder | % Insulin [%] | EC50, receptor phosphorylation |
| --- | --- | --- |
| B17 | 49.2 | 2.57 nM |
| B5 |  | 0.15 nM and 0.25 nM |
| B7 | 1580 |  |
| B8 |  | 0.35 nM and 0.44 nM |
| B9 |  | 7 nM and 8.52 nM |

target: T1, human IGF-1 receptor; experiment: cell-based or functional assay; remark: another data set of the same source

| Binder | % IGF [%] | EC50, receptor phosphorylation [nM] |
| --- | --- | --- |
| B4 | 7.1 | 12.2 |
| B5 | 181 | 0.43 |
| B7 | 112 | 0.78 |
| B8 | 7.7 | 11.3 |

target: T2, human insulin receptor; experiment: competition SPA, [125I]insulin; remark: another data set of the same source

| Binder | IC50 [nM] |
| --- | --- |
| B18 | 1.93 |
